± gives the uncertainty stated by the source.
Test: self-splicing fitness, log relative to wild type (ln ratio); higher = more splicing; Tetrahymena group I intron in knt gene, E. coli kanamycin selection, DiMSum; sequences stand for … in CUCUCU…GGAGGGAAAAGUUAUCAGGCAUGCACCUGGUAGCUAGUCUUUAAACCAAUAGAUUGCAUCGGUUUAAAAGGCAAGACCGUCAAAUUGCGGGAAAGGGGUCAACAGCCGUUCAGUACCAAGUCUCAGGGGAAACUUUGAGAUGGCCUUGCAAAGGGUAUGGUAAUAAGCUGACGGACAUGGUCCUAACCACGCAGCCAAGUCCUAAGUCAACAGAUCUUCUGUUGAUAUGGAUGCAGUUCACAGACUAAAUGUCGGUCGGGGAAGAUGUAUUCUUCUCAUAAGAUAUAGUCGGACCUCUCCUUAAUGGGAGCUAGCGGAUGAAGUGAUGCAACACUGGAGCCGCUGGGAACUAAUUUGUAUGCGAAAGUAUAUUGAUUAGUUUUGGAGUACUCGUGGUCG
Method in brief: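 Library with all eight P1ex-region intron nucleotides randomised, intron inside the knt kanamycin-resistance gene on pET-22b(+), in E. coli BL21(DE3). Cells grew overnight at 37°C or 30°C on LB agar with or without 25 μg/mL kanamycin (plus 100 μg/mL carbenicillin, 50 μM IPTG, 0.2% rhamnose), in six replicate transformations. Pooled colonies were amplicon-sequenced on Illumina HiSeq 2500. DiMSum fitness is the error-weighted combination of wild-type-normalised replicate fold changes, kanamycin versus none.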

| Sequence | self-splicing fitness (ln) (30 °C) | self-splicing fitness (ln) (37 °C) |
| --- | --- | --- |
| UCUGAGCAAUAUUACGGGUG | -3.83 ± 0.19 | -2.42 ± 0.14 |
| UCUGAGCAAUAUUACGGUAA | -2.84 ± 0.33 | -2.24 ± 0.3 |
| UCUGAGCAAUAUUACGUAAU | -3.33 ± 0.23 | -2.12 ± 0.29 |
| UCUGAGCAAUAUUACGUCGA | -0.0432 ± 0.089 | 0.353 ± 0.12 |
| UCUGAGCAAUAUUACGUGCG | -3 ± 0.1 | -1.34 ± 0.09 |
| UCUGAGCAAUAUUACGUGUU | -3.93 ± 0.27 | -2.55 ± 0.23 |
| UCUGAGCAAUAUUACGUUCA | -2.84 ± 0.18 | -2.87 ± 0.28 |
| UCUUAGCAAUAUUACGAAGC | -2.94 ± 0.21 | -2.05 ± 0.17 |
| UCUUAGCAAUAUUACGAGCA | -0.901 ± 0.15 | -0.00766 ± 0.15 |
| UCUUAGCAAUAUUACGAGGU | -3.29 ± 0.29 | -1.82 ± 0.2 |
| UCUUAGCAAUAUUACGAGUC | – | -2.22 ± 0.36 |
| UCUUAGCAAUAUUACGCAAA | -1.56 ± 0.32 | -2.31 ± 0.29 |
| UCUUAGCAAUAUUACGCAAU | – | -2.53 ± 0.36 |
| UCUUAGCAAUAUUACGCCGU | -2.05 ± 0.16 | -0.32 ± 0.17 |
| UCUUAGCAAUAUUACGCCUA | – | -2.71 ± 0.41 |
| UCUUAGCAAUAUUACGCGUA | -3.4 ± 0.24 | -1.38 ± 0.15 |
| UCUUAGCAAUAUUACGCUCU | -1.99 ± 0.24 | -1.61 ± 0.29 |
| UCUUAGCAAUAUUACGGAAC | -0.987 ± 0.34 | -1.99 ± 0.43 |
| UCUUAGCAAUAUUACGGAGG | -2.67 ± 0.34 | -2.17 ± 0.31 |
| UCUUAGCAAUAUUACGGCAA | – | -1.57 ± 0.37 |
| UCUUAGCAAUAUUACGGGAG | -2.63 ± 0.49 | -2.41 ± 0.35 |
| UCUUAGCAAUAUUACGGUAA | -2.62 ± 0.23 | -1.7 ± 0.32 |
| UCUUAGCAAUAUUACGGUAC | -3.68 ± 0.41 | -2.51 ± 0.48 |
| UCUUAGCAAUAUUACGGUCG | -0.895 ± 0.16 | -1.37 ± 0.33 |
| UCUUAGCAAUAUUACGGUGU | -2.83 ± 0.12 | -1.23 ± 0.12 |

| Sequence | self-splicing fitness (ln) (30 °C) | self-splicing fitness (ln) (37 °C) |
| --- | --- | --- |
| UCUUAGCAAUAUUACGGUUU | -3.61 ± 0.22 | -1.77 ± 0.2 |
| UCUUAGCAAUAUUACGUAGA | -1.15 ± 0.21 | -0.474 ± 0.18 |
| UCUUAGCAAUAUUACGUGCU | -3.12 ± 0.38 | -2.37 ± 0.48 |
| UCUUAGCAAUAUUACGUGUU | -2.67 ± 0.15 | -2.3 ± 0.25 |
| UCUUAGCAAUAUUACGUUCA | -2.92 ± 0.14 | -1.85 ± 0.11 |
| UCUUAGCAAUAUUACGUUGC | -3.46 ± 0.47 | – |
| UGAAAGCAAUAUUACGAACC | -1.55 ± 0.17 | -1.16 ± 0.22 |
| UGAAAGCAAUAUUACGACUA | -0.403 ± 0.08 | 0.139 ± 0.11 |
| UGAAAGCAAUAUUACGAGCG | 0.46 ± 0.072 | -0.171 ± 0.085 |
| UGAAAGCAAUAUUACGAGGG | -2.91 ± 0.17 | -3.6 ± 0.42 |
| UGAAAGCAAUAUUACGAUUG | -0.872 ± 0.11 | -0.573 ± 0.14 |
| UGAAAGCAAUAUUACGCGCC | -0.832 ± 0.21 | -0.728 ± 0.23 |
| UGAAAGCAAUAUUACGCUUA | -1.26 ± 0.17 | -0.254 ± 0.17 |
| UGAAAGCAAUAUUACGGAAA | -1.83 ± 0.18 | -1.29 ± 0.17 |
| UGAAAGCAAUAUUACGGAGA | -3.09 ± 0.2 | -2.54 ± 0.23 |
| UGAAAGCAAUAUUACGGAUU | -1.99 ± 0.17 | -1.09 ± 0.18 |
| UGAAAGCAAUAUUACGGCAG | -0.742 ± 0.094 | -0.105 ± 0.11 |
| UGAAAGCAAUAUUACGGGAA | -2.6 ± 0.14 | -1.62 ± 0.12 |
| UGAAAGCAAUAUUACGGGUG | -0.621 ± 0.051 | -0.399 ± 0.069 |
| UGAAAGCAAUAUUACGGUCU | -0.0503 ± 0.077 | -0.209 ± 0.085 |
| UGAAAGCAAUAUUACGGUGC | -2.02 ± 0.38 | -2.61 ± 0.36 |
| UGAAAGCAAUAUUACGGUUA | -0.156 ± 0.07 | -0.217 ± 0.064 |
| UGAAAGCAAUAUUACGUAGC | -3.52 ± 0.37 | -1.5 ± 0.36 |
| UGAAAGCAAUAUUACGUCAU | -4.25 ± 0.22 | -1.77 ± 0.14 |
| UGAAAGCAAUAUUACGUCGA | -0.893 ± 0.08 | -0.374 ± 0.1 |

| Sequence | self-splicing fitness (ln) (30 °C) | self-splicing fitness (ln) (37 °C) |
| --- | --- | --- |
| UGAAAGCAAUAUUACGUCUA | -0.288 ± 0.12 | 0.146 ± 0.11 |
| UGAAAGCAAUAUUACGUGAC | -3.86 ± 0.29 | -2.01 ± 0.17 |
| UGAAAGCAAUAUUACGUGGG | -3.67 ± 0.2 | -2.4 ± 0.17 |
| UGAAAGCAAUAUUACGUGGU | -3.22 ± 0.17 | -2.55 ± 0.23 |
| UGACAGCAAUAUUACGAACC | -2.97 ± 0.25 | -1.37 ± 0.22 |
| UGACAGCAAUAUUACGACGC | -1.83 ± 0.13 | -1.25 ± 0.19 |
| UGACAGCAAUAUUACGACUA | -0.585 ± 0.087 | 0.416 ± 0.1 |
| UGACAGCAAUAUUACGCAUU | -3.85 ± 0.18 | -2.4 ± 0.14 |
| UGACAGCAAUAUUACGCCAC | -3.66 ± 0.32 | -1.43 ± 0.27 |
| UGACAGCAAUAUUACGCCAU | -3.25 ± 0.29 | -1.51 ± 0.26 |
| UGACAGCAAUAUUACGCGAG | -2.36 ± 0.11 | -2.06 ± 0.077 |
| UGACAGCAAUAUUACGCGCA | -0.495 ± 0.072 | 0.187 ± 0.077 |
| UGACAGCAAUAUUACGCGUU | -3.69 ± 0.16 | -2.75 ± 0.17 |
| UGACAGCAAUAUUACGGAUA | -1.25 ± 0.095 | -0.669 ± 0.11 |
| UGACAGCAAUAUUACGGCAG | -0.0451 ± 0.065 | 0.0375 ± 0.079 |
| UGACAGCAAUAUUACGGGCU | -2.75 ± 0.16 | -1.57 ± 0.097 |
| UGACAGCAAUAUUACGGGGU | -4.41 ± 0.31 | -2.38 ± 0.23 |
| UGACAGCAAUAUUACGGGUA | -1.07 ± 0.055 | -0.216 ± 0.062 |
| UGACAGCAAUAUUACGGUAA | -1.85 ± 0.12 | -0.692 ± 0.11 |
| UGACAGCAAUAUUACGGUUA | -0.746 ± 0.073 | -0.364 ± 0.065 |
| UGACAGCAAUAUUACGUAAC | -4.4 ± 0.46 | -2.38 ± 0.19 |
| UGACAGCAAUAUUACGUCCC | -0.969 ± 0.17 | -1.51 ± 0.36 |
| UGACAGCAAUAUUACGUCCG | -0.00105 ± 0.12 | -0.342 ± 0.13 |
| UGACAGCAAUAUUACGUUCG | -0.885 ± 0.068 | -0.194 ± 0.075 |
| UGAGAGCAAUAUUACGAAAG | -5.04 ± 0.28 | -2.86 ± 0.25 |

| Sequence | self-splicing fitness (ln) (30 °C) | self-splicing fitness (ln) (37 °C) |
| --- | --- | --- |
| UGAGAGCAAUAUUACGACUC | -2.96 ± 0.47 | -2.73 ± 0.45 |
| UGAGAGCAAUAUUACGAGAC | -4.44 ± 0.46 | -2.59 ± 0.29 |
| UGAGAGCAAUAUUACGAGAG | – | -1.16 ± 0.36 |
| UGAGAGCAAUAUUACGAGUG | -4.04 ± 0.29 | -2.93 ± 0.26 |
| UGAGAGCAAUAUUACGAUGA | – | -2.48 ± 0.3 |
| UGAGAGCAAUAUUACGCGGA | -3.34 ± 0.47 | -1.49 ± 0.46 |
| UGAGAGCAAUAUUACGCUGA | -2.42 ± 0.32 | -1.53 ± 0.28 |
| UGAGAGCAAUAUUACGGCGA | -3.53 ± 0.34 | -0.434 ± 0.23 |
| UGAGAGCAAUAUUACGGGCU | -2.32 ± 0.37 | -2.6 ± 0.38 |
| UGAGAGCAAUAUUACGGUCA | -0.647 ± 0.1 | -0.589 ± 0.13 |
| UGAGAGCAAUAUUACGUAAA | -4.31 ± 0.39 | -2.43 ± 0.45 |
| UGAGAGCAAUAUUACGUAAU | -3.22 ± 0.21 | -2.22 ± 0.26 |
| UGAGAGCAAUAUUACGUAGU | -2.29 ± 0.24 | -2.41 ± 0.36 |
| UGAGAGCAAUAUUACGUAUG | -1.55 ± 0.13 | -1.66 ± 0.22 |
| UGAGAGCAAUAUUACGUGUG | -2.9 ± 0.14 | -2.28 ± 0.12 |
| UGAGAGCAAUAUUACGUUAG | -3.68 ± 0.37 | -3.31 ± 0.4 |
| UGAGAGCAAUAUUACGUUCC | – | -2.11 ± 0.47 |
| UGAGAGCAAUAUUACGUUCU | -3.3 ± 0.25 | -2.03 ± 0.27 |
| UGAGAGCAAUAUUACGUUGU | -3.89 ± 0.19 | -2.91 ± 0.23 |
| UGAUAGCAAUAUUACGAACG | -0.462 ± 0.15 | -0.0562 ± 0.2 |
| UGAUAGCAAUAUUACGAAGG | -2.96 ± 0.15 | -2.26 ± 0.2 |
| UGAUAGCAAUAUUACGACAC | – | -2.22 ± 0.45 |
| UGAUAGCAAUAUUACGACUA | -0.635 ± 0.13 | 0.407 ± 0.17 |

Source: the supplement of paper PMC7877785
